According to patent US20130295121A1 (published 2013):

Key:
soluble CD16A (sCD16A) = target: T1, soluble CD16A (sCD16A) (human, UniProt P08637 17-208, biotin- or HRP-conjugated where used as the ELISA probe); assay: SPR (BIAcore), receptor immobilized
T1 construct: extracellular domain; Printed only as soluble CD16A; Also used here where an ELISA names only CD16 or CD16A; also called hCD16A; FcγRIIIA

soluble CD32A (sCD32A) = target: T2, soluble CD32A (sCD32A) (UniProt P12318 34-217, limits assumed); assay: SPR (BIAcore), receptor immobilized
T2 construct: extracellular domain; Negative control receptor in SPR; also called control receptor
T2 sequence (looked up): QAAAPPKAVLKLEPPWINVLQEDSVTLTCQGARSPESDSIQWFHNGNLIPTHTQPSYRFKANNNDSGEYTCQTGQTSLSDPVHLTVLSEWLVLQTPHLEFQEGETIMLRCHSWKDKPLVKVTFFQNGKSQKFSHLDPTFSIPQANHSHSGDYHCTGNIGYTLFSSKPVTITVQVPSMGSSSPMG

soluble CD32B (sCD32B) = target: T3, soluble CD32B (sCD32B) (human, UniProt P31994 43-217, biotinylated where used as the ELISA probe); assay: SPR (BIAcore), sCD32B immobilized, diabody 6.25-200 nM as analyte, bivalent analyte fit
T3 construct: extracellular domain; also called huCD32B; FcγRIIB
T3 sequence (looked up): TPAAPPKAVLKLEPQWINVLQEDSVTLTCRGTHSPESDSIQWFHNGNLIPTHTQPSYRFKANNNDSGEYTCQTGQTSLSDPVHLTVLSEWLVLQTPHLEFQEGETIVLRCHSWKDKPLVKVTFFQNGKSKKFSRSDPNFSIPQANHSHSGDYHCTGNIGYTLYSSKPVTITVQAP

T1 sequence (P08637 17-208): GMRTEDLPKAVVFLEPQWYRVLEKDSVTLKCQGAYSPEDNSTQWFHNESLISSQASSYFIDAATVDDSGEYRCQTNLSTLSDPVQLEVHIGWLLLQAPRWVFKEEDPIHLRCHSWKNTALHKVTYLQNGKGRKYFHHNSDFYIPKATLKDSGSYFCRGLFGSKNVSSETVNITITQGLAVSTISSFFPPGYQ

B1: h2B6 covalent monospecific diabody (CMD) (other)
chain: EIVLTQSPDFQSVTPKEKVTFTCRTSQSIGTNIHWYQQKPDQSPKLLIKEVSESISGVPSRFSGSGSGTDFTLTINSLEAEDAATYYCQQSNTWPFTFGGGTKVEIKGGGSGGGGQVQLVQSGAEVKKPGASVKVSCKASGYTFTNYWIHWVRQAPGQGLEWIGVIDPSDTYPNYNKKFKGRVTMTVVVSTSTAYMELRSLRSDDTAVYYCARNGDSDYYSGMDYWGQGTTVTVSSLGGC
notes: Homodimer of construct 4 (hu2B6VL-hu2B6VH-LGGC); also called h2B6 CMD; h2B6 diabody
- binding result (soluble CD16A (sCD16A)): no binding (tested: 100 nM)
- binding result (soluble CD32A (sCD32A)): no binding (tested: 100 nM)
- Kd (soluble CD32B (sCD32B)): 21 nM
